{
  "source": "patent US20240307442",
  "key": {"[1]": {"biological_target": "collagen I"}, "[2]": {"biological_target": "collagen IV"}, "[3]": {"biological_target": "fibronectin"}},
  "data": [
    {"protein": "Active Neutrophil Elastase (protein) IVGGRRARPHAWPFMVSLQLRGGHFCGATLIAPNFVMSAAHCVANVNVRAVRVVLGAHNLSRREPTRQVFAVQRIFENGYDPVNLLNDIVILQLNGSATINANVQVAQLPAQGRRLGNGVQCLAMGWGLLGRNRGIASVLQELNVTVVTSLCRRSNVCTLVRGRQAGVCFGDSGSPLVCNGLIHGIASFVRGGCASGLYPDAFAPVAQFVNWIDSIIQ", "values": [
      {"measurement": "Western Blot of ECM molecules degraded by culture media", "setting": "[1]", "value": "NE released by GCC CAR CK+NE cells can degrade ECM molecules when GCC CAR CK+NE Cells are co-cultured with the substrate cells"},
      {"measurement": "Western Blot of ECM molecules degraded by culture media", "setting": "[2]", "value": "NE released by GCC CAR CK+NE cells can degrade ECM molecules when GCC CAR CK+NE Cells are co-cultured with the substrate cells"},
      {"measurement": "Western Blot of ECM molecules degraded by culture media", "setting": "[3]", "value": "NE released by GCC CAR CK+NE cells can degrade ECM molecules when GCC CAR CK+NE Cells are co-cultured with the substrate cells"}
    ]}
  ]
}
